The target of one experiment is T1, recombinant human CD122 (human, UniProt P14784 27-239, limits assumed).
T1 construct: also called IL-2Rβ
T1 sequence (looked up): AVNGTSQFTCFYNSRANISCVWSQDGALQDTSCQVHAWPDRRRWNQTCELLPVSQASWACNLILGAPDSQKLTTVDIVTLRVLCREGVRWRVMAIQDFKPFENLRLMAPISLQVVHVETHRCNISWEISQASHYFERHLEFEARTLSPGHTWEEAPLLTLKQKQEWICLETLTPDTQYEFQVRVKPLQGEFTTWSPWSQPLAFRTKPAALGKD
The experiment in a line: GCI (WAVEsystem). The method, then: (§1) Binding affinity and kinetics constants of humanized CD122/CD132 FIT-Ig were determined using a label-free biosensor on WAVEsystem (Creoptix AG, Switzerland) by grating-coupled interferometry (GCI). Briefly, a PCP WAVEchip (Creoptix AG) was pre-immobilized with goat anti-human IgG Fc antibody to a density of 3830 pg/mm² by amine coupling, and used to capture humanized CD122/CD132 FIT-Ig generated from Example 3.2.1 to a density of ˜90 pg/mm², then exposed to recombinant human/cyno CD122 or CD132 serially diluted (3× dilutions from 200 nM to […] for human CD122, human CD132 and cyno CD132, respectively; and from 1000 nM to 1.37 nM for cyno CD122) in 1X HBS-EP+ buffer (Cytiva, Cat No. BR100669) by injection at 60 μL/min for 250s to assess association, followed by 1200s dissociation. After each round of association and dissociation, WAVEchip surface was regenerated by subject to pH 1.5 Glycine-HCl buffer injection at 60 μL/min for 120s. Sensorgrams were recorded at 25° C., the data were analyzed on WAVEcontrol (Creoptix AG) and double referenced by subtracting the signals from blank injections and the reference channel. A Langmuir 1:1 model was used for data fitting.

Another experiment addresses T2, recombinant human CD132 (human, UniProt P31785 23-262, limits assumed).
T2 construct: also called IL-2Rγ
T2 sequence (looked up): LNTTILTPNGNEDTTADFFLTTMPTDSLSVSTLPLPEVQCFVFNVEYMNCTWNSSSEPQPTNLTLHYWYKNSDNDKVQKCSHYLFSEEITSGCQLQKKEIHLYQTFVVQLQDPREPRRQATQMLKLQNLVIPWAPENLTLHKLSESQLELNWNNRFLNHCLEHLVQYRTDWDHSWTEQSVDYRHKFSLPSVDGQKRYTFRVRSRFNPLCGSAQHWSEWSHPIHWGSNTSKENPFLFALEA
Description: GCI (WAVEsystem). The method, then:
as §1

B1: huFIT2019-86b-17 (bispecific antibody, human IgG1, kappa, L234A L235A)
chain 1: not shown
chain 2: EVQLVQSGAEVKKPGASVKVSCKASGYTFTDYVISWVRQATGQGLEWMGEIYPGDAQTYYNEMFKGRVTMTRDTSISTAYMELSSLRSEDTAVYYCARGSYTYDNYAMDFWGQGTTVTVSSASTKGPSVFPLAPSSKSTSGGTAALGCLVKDYFPEPVTVSWNSGALTSGVHTFPAVLQSSGLYSLSSVVTVPSSSLGTQTYICNVNHKPSNTKVDKKVEPKSC
chain 3: not shown
Turning to B1, the binding result with recombinant human CD122 and with recombinant human CD132 was “binds” in each case.

B2: huFIT2019-86b-11 (bispecific antibody, human IgG1, kappa, L234A L235A)
chain 1: not shown
chain 2: EVQLVQSGAEVKKPGASVKVSCKASGYTFTDYVISWVRQATGQGLEWMGEIYPGDAQTYYNEMFKGRVTMTRDTSISTAYMELSSLRSEDTAVYYCARGSYTYDNYAMDFWGQGTTVTVSSASTKGPSVFPLAPSSKSTSGGTAALGCLVKDYFPEPVTVSWNSGALTSGVHTFPAVLQSSGLYSLSSVVTVPSSSLGTQTYICNVNHKPSNTKVDKKVEPKSC
chain 3: not shown
Regarding B2, the binding result in the experiment with recombinant human CD122 and in the experiment with recombinant human CD132 was “binds” in each case.

B3: huFIT2019-86b-20 (bispecific antibody, human IgG1, kappa, L234A L235A)
chain 1: not shown
chain 2: EVQLVQSGAEVKKPGASVKVSCKASGYTFTDYVISWVRQATGQGLEWMGEIYPGDAQTYYNEMFKGRVTLTADTSISTAYMELSSLRSEDTAVYYCARGSYTYDNYAMDFWGQGTTVTVSSASTKGPSVFPLAPSSKSTSGGTAALGCLVKDYFPEPVTVSWNSGALTSGVHTFPAVLQSSGLYSLSSVVTVPSSSLGTQTYICNVNHKPSNTKVDKKVEPKSC
chain 3: not shown
In the case of B3, the binding result with recombinant human CD122 and in the experiment with recombinant human CD132 was “binds” in each case.

B4: huFIT2019-86b-14 (bispecific antibody, human IgG1, kappa, L234A L235A)
chain 1: not shown
chain 2: EVQLVQSGAEVKKPGASVKVSCKASGYTFTDYVISWVRQATGQGLEWMGEIYPGDAQTYYNEMFKGRVTLTADTSISTAYMELSSLRSEDTAVYYCARGSYTYDNYAMDFWGQGTTVTVSSASTKGPSVFPLAPSSKSTSGGTAALGCLVKDYFPEPVTVSWNSGALTSGVHTFPAVLQSSGLYSLSSVVTVPSSSLGTQTYICNVNHKPSNTKVDKKVEPKSC
chain 3: not shown
Regarding B4, the binding result with recombinant human CD122 and with recombinant human CD132 was “binds” in each case.

B5: huFIT2019-86b-18 (bispecific antibody, human IgG1, kappa, L234A L235A)
chain 1: not shown
chain 2: EVQLVQSGAEVKKPGASVKVSCKASGYTFTDYVISWVRQATGQGLEWMGEIYPGDAQTYYNEMFKGRVTMTADTSISTAYMELSSLRSEDTAVYYCARGSYTYDNYAMDFWGQGTTVTVSSASTKGPSVFPLAPSSKSTSGGTAALGCLVKDYFPEPVTVSWNSGALTSGVHTFPAVLQSSGLYSLSSVVTVPSSSLGTQTYICNVNHKPSNTKVDKKVEPKSC
chain 3: not shown
Consider B5, for which the binding result with recombinant human CD122 and with recombinant human CD132 was “binds” throughout.

B6: huFIT2019-86b-21 (bispecific antibody, human IgG1, kappa, L234A L235A)
chain 1: not shown
chain 2: EVQLVQSGAEVKKPGASVKVSCKASGYTFTDYVISWVKQATGQGLEWIGEIYPGDAQTYYNEMFKGRATLTADKSISTAYMELSSLRSEDTAVYYCARGSYTYDNYAMDFWGQGTTVTVSSASTKGPSVFPLAPSSKSTSGGTAALGCLVKDYFPEPVTVSWNSGALTSGVHTFPAVLQSSGLYSLSSVVTVPSSSLGTQTYICNVNHKPSNTKVDKKVEPKSC
chain 3: not shown
With B6, the binding result in the experiment with recombinant human CD122 and with recombinant human CD132 was “binds” in each case.

B7: huFIT2019-86b-24 (bispecific antibody, human IgG1, kappa, L234A L235A)
chain 1: not shown
chain 2: EVQLVQSGAEVKKPGASVKVSCKASGYTFTDYVISWVRQATGQGLEWMGEIYPGDAQTYYNEMFKGRVTMTADTSISTAYMELSSLRSEDTAVYYCARGSYTYDNYAMDFWGQGTTVTVSSASTKGPSVFPLAPSSKSTSGGTAALGCLVKDYFPEPVTVSWNSGALTSGVHTFPAVLQSSGLYSLSSVVTVPSSSLGTQTYICNVNHKPSNTKVDKKVEPKSC
chain 3: not shown
In the case of B7, the binding result with recombinant human CD122 and with recombinant human CD132 was “binds” throughout.

B8: huFIT2019-86b-12 (bispecific antibody, human IgG1, kappa, L234A L235A)
chain 1: not shown
chain 2: EVQLVQSGAEVKKPGASVKVSCKASGYTFTDYVISWVRQATGQGLEWMGEIYPGDAQTYYNEMFKGRVTMTADTSISTAYMELSSLRSEDTAVYYCARGSYTYDNYAMDFWGQGTTVTVSSASTKGPSVFPLAPSSKSTSGGTAALGCLVKDYFPEPVTVSWNSGALTSGVHTFPAVLQSSGLYSLSSVVTVPSSSLGTQTYICNVNHKPSNTKVDKKVEPKSC
chain 3: not shown
For the molecule B8, the binding result with recombinant human CD122 and with recombinant human CD132 was “binds” throughout.

B9: huFIT2019-86b-26 (bispecific antibody, human IgG1, kappa, L234A L235A)
chain 1: not shown
chain 2: EVQLVQSGAEVKKPGASVKVSCKASGYTFTDYVISWVRQATGQGLEWMGEIYPGDAQTYYNEMFKGRVTLTADTSISTAYMELSSLRSEDTAVYYCARGSYTYDNYAMDFWGQGTTVTVSSASTKGPSVFPLAPSSKSTSGGTAALGCLVKDYFPEPVTVSWNSGALTSGVHTFPAVLQSSGLYSLSSVVTVPSSSLGTQTYICNVNHKPSNTKVDKKVEPKSC
chain 3: not shown
As for B9, the binding result in the experiment with recombinant human CD122 and with recombinant human CD132 was “binds” in each case.

B10: huFIT2019-86b-16 (bispecific antibody, human IgG1, kappa, L234A L235A)
chain 1: not shown
chain 2: EVQLVQSGAEVKKPGASVKVSCKASGYRFSDYVISWVKQATGQGLEWIGEIYPGDAQTYYNEMFKGRATLTADKSISTAYMELSSLRSEDTAVYFCARGSYTYDNYAMDFWGQGTTVTVSSASTKGPSVFPLAPSSKSTSGGTAALGCLVKDYFPEPVTVSWNSGALTSGVHTFPAVLQSSGLYSLSSVVTVPSSSLGTQTYICNVNHKPSNTKVDKKVEPKSC
chain 3: not shown
Turning to B10, the binding result in the experiment with recombinant human CD122 and with recombinant human CD132 was “binds” each time.

B11: huFIT2019-86b-19 (bispecific antibody, human IgG1, kappa, L234A L235A)
chain 1: not shown
chain 2: EVQLVQSGAEVKKPGASVKVSCKASGYRFSDYVISWVRQATGQGLEWMGEIYPGDAQTYYNEMFKGRVTMTADTSISTAYMELSSLRSEDTAVYYCARGSYTYDNYAMDFWGQGTTVTVSSASTKGPSVFPLAPSSKSTSGGTAALGCLVKDYFPEPVTVSWNSGALTSGVHTFPAVLQSSGLYSLSSVVTVPSSSLGTQTYICNVNHKPSNTKVDKKVEPKSC
chain 3: not shown
For the molecule B11, the binding result in the experiment with recombinant human CD122 and in the experiment with recombinant human CD132 was “binds” in each case.

B12: huFIT2019-86b-15 (bispecific antibody, human IgG1, kappa, L234A L235A)
chain 1: not shown
chain 2: EVQLVQSGAEVKKPGASVKVSCKASGYTFTDYVISWVKQATGQGLEWIGEIYPGDAQTYYNEMFKGRATLTADKSISTAYMELSSLRSEDTAVYYCARGSYTYDNYAMDFWGQGTTVTVSSASTKGPSVFPLAPSSKSTSGGTAALGCLVKDYFPEPVTVSWNSGALTSGVHTFPAVLQSSGLYSLSSVVTVPSSSLGTQTYICNVNHKPSNTKVDKKVEPKSC
chain 3: not shown
B12: the binding result with recombinant human CD122 and in the experiment with recombinant human CD132 was “binds” each time.

B13: huFIT2019-86b-13 (bispecific antibody, human IgG1, kappa, L234A L235A)
chain 1: not shown
chain 2: EVQLVQSGAEVKKPGASVKVSCKASGYRFSDYVISWVRQATGQGLEWMGEIYPGDAQTYYNEMFKGRVTMTADTSISTAYMELSSLRSEDTAVYYCARGSYTYDNYAMDFWGQGTTVTVSSASTKGPSVFPLAPSSKSTSGGTAALGCLVKDYFPEPVTVSWNSGALTSGVHTFPAVLQSSGLYSLSSVVTVPSSSLGTQTYICNVNHKPSNTKVDKKVEPKSC
chain 3: not shown
Take B13: the binding result with recombinant human CD122 and in the experiment with recombinant human CD132 was “binds” in each case.

B14: huFIT2019-86b-22 (bispecific antibody, human IgG1, kappa, L234A L235A)
chain 1: not shown
chain 2: EVQLVQSGAEVKKPGASVKVSCKASGYRFSDYVISWVKQATGQGLEWIGEIYPGDAQTYYNEMFKGRATLTADKSISTAYMELSSLRSEDTAVYFCARGSYTYDNYAMDFWGQGTTVTVSSASTKGPSVFPLAPSSKSTSGGTAALGCLVKDYFPEPVTVSWNSGALTSGVHTFPAVLQSSGLYSLSSVVTVPSSSLGTQTYICNVNHKPSNTKVDKKVEPKSC
chain 3: not shown
In the case of B14, the binding result with recombinant human CD122 and with recombinant human CD132 was “binds” throughout.

B15: huFIT2019-86b-25 (bispecific antibody, human IgG1, kappa, L234A L235A)
chain 1: not shown
chain 2: EVQLVQSGAEVKKPGASVKVSCKASGYRFSDYVISWVRQATGQGLEWMGEIYPGDAQTYYNEMFKGRVTMTADTSISTAYMELSSLRSEDTAVYYCARGSYTYDNYAMDFWGQGTTVTVSSASTKGPSVFPLAPSSKSTSGGTAALGCLVKDYFPEPVTVSWNSGALTSGVHTFPAVLQSSGLYSLSSVVTVPSSSLGTQTYICNVNHKPSNTKVDKKVEPKSC
chain 3: not shown
Turning to B15, the binding result with recombinant human CD122 and in the experiment with recombinant human CD132 was “binds” in each case.

B16: huFIT2019-86b-23 (bispecific antibody, human IgG1, kappa, L234A L235A)
chain 1: not shown
chain 2: EVQLVQSGAEVKKPGASVKVSCKASGYTFTDYVISWVRQATGQGLEWMGEIYPGDAQTYYNEMFKGRVTMTRDTSISTAYMELSSLRSEDTAVYYCARGSYTYDNYAMDFWGQGTTVTVSSASTKGPSVFPLAPSSKSTSGGTAALGCLVKDYFPEPVTVSWNSGALTSGVHTFPAVLQSSGLYSLSSVVTVPSSSLGTQTYICNVNHKPSNTKVDKKVEPKSC
chain 3: not shown
With B16, the binding result with recombinant human CD122 and in the experiment with recombinant human CD132 was “binds” throughout.

The record behind these values is patent US20250002594A1 (SHANGHAI EPIMAB BIOTHERAPEUTICS, published 2025).
